Like-named read-outs stand apart in the source and are kept apart here. Starred links: 1 amine or outer side, 2 acyl side, 3 side chain; linkers in the order of their positions; H or OH if unused. Non-standard residues stand in square brackets, D forms with d. Residues, ends and D or L forms follow the SMILES beside them. *: point of attachment. Benzoyl(4-SiFtBu2) = CC(C)(C)[Si](F)(c1ccc(C(=O)*)cc1)C(C)(C)C; DOTA = O=C(O)CN1CCN(CC(=O)O)CCN(CC(=O)*)CCN(CC(=O)O)CC1; d(γGlu) = O=C(O)[C@@H](CCC(=O)[*:2])N[*:1]; 1Nal = N[C@@H](Cc1cccc2ccccc12)C(=O)O; Hyp = O=C(O)[C@@H]1C[C@@H](O)CN1; NMeNle = CCCC[C@H](NC)C(=O)O; PEG4 = NCCOCCOCCOCCOCCC(=O)O; dDap = NC[C@@H](N)C(=O)O
Experiments:
[1] = target: T1, CCK-2R (Rattus norvegicus, UniProt P30553); experiment: Determination of IC50: CCK-2R affinity on AR4-2J cells, competition with [^177Lu]Lu-DOTA-PP-F11N; type: binding; settings: AR4-2J cells
T1 construct: The CCK-2R expressing rat pancreatic tumor cells AR4-2J; host or cells: AR4-2J rat pancreatic tumor cells
T1 sequence (P30553 1-452): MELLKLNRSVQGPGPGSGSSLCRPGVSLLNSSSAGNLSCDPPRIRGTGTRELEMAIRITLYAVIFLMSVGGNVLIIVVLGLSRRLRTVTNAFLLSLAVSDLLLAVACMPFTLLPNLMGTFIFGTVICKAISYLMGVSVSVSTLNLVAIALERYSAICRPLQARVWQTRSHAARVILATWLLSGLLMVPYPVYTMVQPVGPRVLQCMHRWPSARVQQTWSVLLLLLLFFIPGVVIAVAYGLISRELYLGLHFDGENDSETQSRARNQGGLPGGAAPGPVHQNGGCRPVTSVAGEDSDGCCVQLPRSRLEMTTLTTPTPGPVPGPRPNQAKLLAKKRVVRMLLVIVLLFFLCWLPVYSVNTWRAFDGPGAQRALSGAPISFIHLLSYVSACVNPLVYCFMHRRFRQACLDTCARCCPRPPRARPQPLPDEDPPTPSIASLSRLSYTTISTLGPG
In short: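 Competitive displacement of 0.3 pmol/well [177Lu]Lu-DOTA-PP-F11N by compounds (10^-10 to 10^-4 M) on AR4-2J cells in BSA-supplemented medium, 3 h at 37 °C. Free label was collected from medium plus PBS rinse, and cell-bound label was recovered with 1 M NaOH, both measured by γ-counter. Each IC50 was determined twice, in triplicate.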

[2] = In vivo stability studies in murine serum and urine; set-up: species or system CB17-SCID mice; settings: 30 min p.i.
Method: Stability studies were performed via injection of the ^177Lu-labeled peptide (approx. 35 MBq, 1 nmol) into the tail vein (n = 3) of anesthetized (2% isoflurane) CB17-SCID mice. At 30 min p.i. the mice were euthanized and a urine as well as a blood sample were taken. The urine sample was analyzed without further treatment. The blood sample was centrifuged at 5,000 rpm for 2 min. Afterwards, the serum was collected and ice-cold MeCN (1:1, v/v) as well as EtOH (1:2, v/v) were added. The sample was centrifuged at 5,000 rpm for 2 min once more and the supernatant was analyzed via RP-HPLC (10→30% in 5 min, 30→60% in 15 min, MeCN/H2O + 0.1% TFA).

[3] = target: T2, Human serum albumin (HSA) (Homo sapiens, UniProt P02768); experiment: Determination of HSA binding on a Chiralpak HSA column; type: in vitro ADME; settings: Tab. 8; metal not stated (Fig. 18: ^natLu)
T2 construct: purchased Daicel, Tokyo, Japan H13H-2433
In short: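 Retention on an HSA column with a 50 mM NH4OAc (pH 6.9)/isopropanol gradient at 0.5 mL/min, rt; samples run at 0.5 mg/mL in A/B (1/1). Binding derived by non-linear regression against nine reference compounds spanning 13 to 99% HSA binding.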

[4] = test system: CCK-2R; experiment: Competition studies in AR4-2J tumor-bearing CB17-SCID mice; type: in vivo; settings: co-administration of excess unlabeled competitor (40 nmol), 24 h p.i.
Method: For competition studies, the radiolabeled compound (approx. 1-5 MBq, 100 pmol) was co-injected with [^natLu]Lu-DOTA-MGS5 (40 nmol) into the tail vein of AR4-2J tumor-bearing CB17-SCID mice and sacrificed at 1 to 24 h post injection (n = 2). Selected organs were removed, weighted and measured in a γ-counter.

[5] = n-Octanol-PBS distribution coefficient (logD7.4); type: physicochemical; settings: pH = 7.4, ^177Lu-labeled
Method: Approximately 1 MBq of the labeled tracer was dissolved in 1 mL of a 1/1 mixture (v/v) of phosphate buffered saline (PBS, pH = 7.4) and n-octanol in an Eppendorf tube (1.5 mL). After vigorous mixing of the suspension for 3 min at rt, the vial was centrifuged at 9,000 rpm for 5 min (Biofuge 15, Heraeus Sepatech, Osterode, Germany) and 200 µL aliquots of both layers were measured in a γ-counter. The experiment was repeated at least five times.

T2 sequence (P02768 25-609): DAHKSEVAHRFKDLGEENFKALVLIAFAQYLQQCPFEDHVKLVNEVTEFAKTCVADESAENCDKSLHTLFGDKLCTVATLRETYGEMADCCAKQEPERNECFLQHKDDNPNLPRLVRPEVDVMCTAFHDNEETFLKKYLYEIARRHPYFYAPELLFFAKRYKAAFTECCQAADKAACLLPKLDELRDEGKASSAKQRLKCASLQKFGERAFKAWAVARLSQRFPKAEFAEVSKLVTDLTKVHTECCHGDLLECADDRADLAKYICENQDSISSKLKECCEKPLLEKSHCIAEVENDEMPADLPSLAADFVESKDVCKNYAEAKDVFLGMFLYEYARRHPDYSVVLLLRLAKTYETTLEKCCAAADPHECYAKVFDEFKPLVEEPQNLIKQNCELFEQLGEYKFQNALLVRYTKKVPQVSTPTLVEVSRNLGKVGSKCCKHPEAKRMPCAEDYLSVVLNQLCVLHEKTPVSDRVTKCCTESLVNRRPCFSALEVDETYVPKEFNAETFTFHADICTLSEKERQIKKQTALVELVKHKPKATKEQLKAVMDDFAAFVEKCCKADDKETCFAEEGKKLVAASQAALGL

With `CCCC[C@@H](C(=O)N[C@@H](CC(=O)O)C(=O)N[C@@H](Cc1cccc2ccccc12)C(N)=O)N(C)C(=O)[C@H](Cc1c[nH]c2ccccc12)NC(=O)CCOCCOCCOCCOCCNC(=O)CC[C@@H](NC(=O)[C@@H]1C[C@@H](O)CN1C(=O)[C@@H]1C[C@@H](O)CN1C(=O)[C@@H]1C[C@@H](O)CN1C(=O)[C@@H]1C[C@@H](O)CN1C(=O)[C@@H]1C[C@@H](O)CN1C(=O)[C@@H]1C[C@@H](O)CN1C(=O)CC[C@@H](NC(=O)[C@@H](CNC(=O)c1ccc([Si](F)(C(C)(C)C)C(C)(C)C)cc1)NC(=O)CN1CCN(CC(=O)O)CCN(CC(=O)O)CCN(CC(=O)O)CC1)C(=O)O)C(=O)O` [DOTA-rhCCK-84, DOTA-dap(SiFA)-γ-glu-(Hyp)6-γ-glu-(PEG)3-Trp-(N-Me)Nle-Asp-1-Nal-NH2] ({DOTA}-[dDap](Benzoyl(4-SiFtBu2))[d(γGlu)][Hyp][Hyp][Hyp][Hyp][Hyp][Hyp][d(γGlu)][PEG4]W[NMeNle]D[1Nal]-NH2) the IC50 ([1]; read-out: IC50 [nM] (n = 3), ^natGa-labeled, ^natGa-labeled) was 27.7 ± 3.1 nM, the IC50 ([1]; read-out: IC50 [nM] (n = 3), ^natLu-labeled, ^natLu-labeled) was 7.87 ± 0.3 nM and the “in vivo stability in the serum (intact compound)” value ([2]; murine serum) was 93.5 ± 2.1%. For the same molecule, the “in vivo stability in the urine (intact compound)” value ([2]; murine urine) was 55.4 ± 9.0%, the “HSA binding [%]” value [3] was 90.0% and the “activity levels in stomach and tumor in competition studies (CCK-2R specificity)” value [4] was “significantly decreased activity levels in both stomach and tumor”. The “logD7.4 (n ≥ 5), ^177Lu-labeled” value [5] was -2.14 ± 0.06 and the “logD7.4 (n ≥ 5), ^177Lu-labeled” value ([5]; listed as [^nat/177Lu]Lu-DOTA-rhCCK-84) was -2.14 ± 0.06.
